Biological target: T1, HLA-A*02:01 (human)
T1 construct: the tested peptide takes its place; also called peptide-receptive MHC molecules; MHC class I
Experiment: UV-ligand exchange, anti-β2m ELISA; grade of peptide exchange yield
Excerpt: Candidate peptides for T cell based therapies according to the present invention were further tested for their MHC binding capacity (affinity). The individual peptide-MHC complexes were produced by UV-ligand exchange, where a UV-sensitive peptide is cleaved upon UV-irradiation, and exchanged with the peptide of interest as analyzed. Only peptide candidates that can effectively bind and stabilize the peptide-receptive MHC molecules prevent dissociation of the MHC complexes. To determine the yield of the exchange reaction, an ELISA was performed based on the detection of the light chain (β2m) of stabilized MHC complexes. The assay was performed as generally described in Rodenko et al. (Rodenko et al., 2006).
96 well MAXISorp plates (NUNC) were coated over night with 2 ug/ml streptavidin in PBS at room temperature, washed 4× and blocked for 1h at 37° C. in 2% BSA containing blocking buffer. Refolded HLA-A*02:01/MLA-001 monomers served as standards, covering the range of 15-500 ng/ml. Peptide-MHC monomers of the UV-exchange reaction were diluted 100 fold in blocking buffer. Samples were incubated for 1 h at 37° C., washed four times, incubated with 2 ug/ml HRP conjugated anti-β2m for 1h at 37° C., washed again and detected with TMB solution that is stopped with […]. Absorption was measured at 450 nm. […]

B1: SLTEQVHSL (SEQ ID NO: 141) (peptide)
peptide: SLTEQVHSL
  peptide exchange yield: 50 to 75%

Reference: patent US20160368965A1 (IMMATICS BIOTECHNOLOGIES, published 2016)
